These results are taken from patent US20170198050A1 (INHIBRX, published 2017).

In assay [1] the target is T1, human 41BB expressed on the cell surface (human, UniProt Q07011 24-255).
T1 construct: whole, on cells; also called human 41BB on CHO cells; human 41BB on 293freestyle cells
Nature of the assay: flow cytometry on 41BB expressing 293freestyle cells. As for the experimental part:
The PDL1-41BB targeting fusion proteins of the disclosure include a humanized anti-41BB sequence. In the studies presented herein, the PDL1-41BB targeting fusion proteins of the disclosure include a humanized anti-41BB sequence such as hzRH3v5-1 (SEQ ID NO: 30) and/or hzRH3v9 (SEQ ID NO: 82) bind both human and cynomolgus 41BB (FIGS. 9A, 9B), including human 41BB and cynomolgus 41BB expressed on the surface of CHO cells (FIGS. 9C, 9D). Binding was assessed by flow cytometry on 41BB expressing 293freestyle cells.
For orientation: A flow cytometer gives signals particle by particle.

The target in assay [2] is T2, recombinant human 41BB-mFc fusion protein (human, UniProt Q07011 24-186).
T2 construct: A fusion protein containing 41BB operably linked to a mouse Fc region
Nature of the assay: ELISA, recombinant 41BB-mFc immobilized on Medisorp plate. As to the method:
Binding was assessed by ELISA wherein recombinant 41BB-mFc protein was immobilized on a Medisorp 96 well plate.
(§1) The 41BB-targeting single domain antibodies (sdAbs) referred to herein as 1G3 (SEQ ID NO: 432), 1H4 (SEQ ID NO: 436), 1H1 (SEQ ID NO: 440), 4H4 (SEQ ID NO: 16), 1H8 (SEQ ID NO: 444), 4F5 (SEQ ID NO: 23), and 4E1 (SEQ ID NO: 20) bind recombinant human 41BB (FIG. 2A), cynomolgus 41BB (FIG. 2B). The 41BB-targeting single domain antibodies (sdAbs) referred to herein as 4F5 (SEQ ID NO: 23), 4H04 (SEQ ID NO: 16), 4E01 (SEQ ID NO: 20), RH03 (SEQ ID NO: 25), and D1 (SEQ ID NO: 29) bind human 41BB expressed on the cell surface of CHO cells (FIG. 3). The 41BB-targeting sdAbs referred to herein as 4H04, RH03, and […]. For FIG. 2A, FIG. 2B, and FIG. 4, binding was assessed by ELISA wherein recombinant 41BB-mFc fusion protein (a fusion protein containing 41BB operably linked to a mouse Fc region) was immobilized on a Medisorp 96 well plate. For FIG. 3, binding was assessed by flow cytometry using 41BB expressing CHO cells, and the data is presented as median fluorescence intensity.
(In an ELISA, binding on a coated surface is turned into a signal by an enzyme label.)

In assay [3] the target is T1, human 41BB expressed on the cell surface. Kind of assay: flow cytometry on 41BB expressing CHO cells.
Excerpt: as §1

Substitutions are numbered along the chain they refer to.

T1 sequence (Q07011 24-255): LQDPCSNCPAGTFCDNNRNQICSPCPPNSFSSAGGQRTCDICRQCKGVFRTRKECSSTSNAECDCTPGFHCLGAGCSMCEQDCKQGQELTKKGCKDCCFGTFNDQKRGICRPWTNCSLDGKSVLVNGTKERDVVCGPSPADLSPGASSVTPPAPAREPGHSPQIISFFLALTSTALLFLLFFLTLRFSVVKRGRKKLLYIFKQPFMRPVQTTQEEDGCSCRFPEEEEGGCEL

B1: hzRH3v5-1 (VHH)
VHH: EVQLLESGGGEVQPGGSLRLSCAASGFSFSINAMGWYRQAPGKRREFVAAIESGRNTVYAESVKGRFTISRDNAKNTVYLQMSSLRAEDTAVYYCGLLKGNRVVSPSVAYWGQGTLVTVKP
Consider B1, for which the binding result in assay [1] is recorded as “binds”.

B2: hzRH3v9 (VHH)
VHH: B1 VHH with R44G
As to B2, the binding result in assay [1] is given as “binds”.

B3: 4H04 (VHH)
VHH: QVQLQESGGGLVQAGDSLRLSCAASGWAFDNYGMAWFRQAPGKEREFIGRLAWNGGSTDYADSVKGRFTISRDNPKNTLYLQMNNLKPEDTAVYYCARQRSYSGYGIRTPQTYDYWGQGTQVT
notes: also called 4H4
Consider B3, for which the binding result in assay [2] and in assay [3] was “binds” each time.

B4: 4E01 (VHH)
VHH: B3 VHH with E6Q, D30G, Q39R, A61V, E89D, G104R, G106D
notes: also called 4E1
With B4, the binding result in assay [2] and in assay [3] was “binds” in each case.

B5: 4F5 (VHH)
VHH: B3 VHH with Q5V, E6Q, A14P, D16G, N85S, G104R, T109A
notes: also called 4F05
Turning to B5, the binding result in assay [2] and in assay [3] was “binds” each time.

B6: D1 (VHH)
VHH: EVQPVQSGGGLVQAGESLRLSCAASATIFSNNAMGWYRQAPGKQRELVATITTGGFTNYRDSVKGRFDISRDNAKNTVYLQMNNLKPEDTAVYYCNVVLRYSRDYSYTTVKEYWGQGTQV
notes: also called 41BB-targeting single domain antibody D1
Turning to B6, in assay [3], the binding result is “binds”.

B7: 1H8 (VHH)
VHH: EVQLVQSGGGLVQPGGSLRLSCAASGFTFSSYYMSWVRQAPGKGLEWVSTISTNTGGGSTYYAYADSVKGRFTISRDNAKNTLYLEMNSLKPEDTAQYYCVRTRWEGVYDYWGLGTQV
notes: also called 41BB-targeting single domain antibody 1H8
On to B7, for which the binding result in assay [2] is “binds”.

B8: RH3 (VHH)
VHH: QVQLQESGGGLVQPGGSLRLSCAVSGFSFSINAMGWYRQAPGKRREFLAAIDSGRNTVYAVSVKGRFTISRDNAKNTVYLQMNSLKPEDTAIYYCGLLKGNRVVSPSVAYWGQGTQVT
notes: also called RH03
Consider B8, for which, in assay [3], the binding result was “binds”.

B9: 1H1 (VHH)
VHH: QVQLVQSGGGLVQPGGSLRLSCAASGFTFDDHAMSWVRQAPGKGLEWVSAISWNGHYTYYAESMKGRFAISRDNAKNTLYLQMNSLKSEDTAVYYCVKGWRGSYTRDRPFASWGQGTQV
notes: also called 41BB-targeting single domain antibody 1H1
In the case of B9, in assay [2], the binding result is “binds”.

B10: 1H4 (VHH)
VHH: QVQLVQSGGGLVQPGGSLRLSCVVSGFTFRSYAMSWVRQAPGKGLEWVSTINSGESSTKYADSVKGRFTISRDDAKNTLYLQMSDLKPEDTAVYFCAKHRGWSTVDDINYWGKGTQV
notes: also called 41BB-targeting single domain antibody 1H4
As to B10, the binding result in assay [2] was “binds”.

B11: 1G3 (VHH)
VHH: QVQLVQSGGGLVQPGGSLRLSCAASGFTFSSYAMSWVRQAPGKGLEWVSAIPAGDGSTKYADSVKGRFTISRDNAKNTVYLQMDSLKPEDTAVYFCAKSRGWSTVDDMDYWGKGTQV
notes: also called 41BB-targeting single domain antibody 1G3
On to B11, for which the binding result in assay [2] is “binds”.
